Assay results: patent US8114831B2, “Guanylate cyclase receptor agonists for the treatment of tissue inflammation and carcinogenesis” (Synergy Pharmaceuticals Inc., priority 2001, dated 2012)
Positions of bridges follow the written chain, without caps; N, C: chain ends. No end group written: not given here.

What was measured:
[1] = Heat stability: peptide solutions heated at 95° C., then tested for biological activity in the T84 cell-based assay; assay type: physicochemical; conditions: 10 micromolar solution, read-out T84 cell-based assay
Description: (§1) T84 cell-based assay for determining the intracellular levels of cGMP: Peptide analogs were custom synthesized by Multiple Peptide Systems, San Diego, Calif., and by Princeton Biomolecules, Langhorne, Pa. Biological activity of the synthetic peptides was assayed as previously reported (15). Briefly, the confluent monolayers of T-84 cells in 24-well plates were washed twice with 250 μl of DMEM containing 50 mM HEPES (pH 7.4), pre-incubated at 37° C. for 10 min with 250 μl of DMEM containing 50 mM HEPES (pH 7.4) and 1 mM isobutylmethylxanthine (IBMX), followed by incubation with peptide analogs (0.1 nM to 10 μM) for 30 min. The medium was aspirated, and the reaction was terminated by the addition of 3% perchloric acid. Following centrifugation, and neutralization with 0.1 N NaOH, the supernatant was used directly for measurements of cGMP using an ELISA kit (Caymen Chemical, Ann Arbor, Mich.).
To examine heat stability, 10 micromolar solutions of peptide analogs were heated at 95° C. for up to 90 minutes. At specific times during the treatment, samples were tested for their biological activity in the T84 cell-based assay. […] Based on energy calculations and 3D structure, we expected that the negatively charged carboxyl group of the side chain in position 3 of SEQ ID NO:1 specifically interacts with a positively charged binding site on the receptor. […] At the same time, to ensure efficiency of this particular interaction, an entire system of the long-range electrostatic interactions between ligand and receptor should be well balanced. Since the Glu^2 side chain presents more conformational possibilities compared to the Asp^2 side chain, this balance may be slightly changed in SP302 (double substitution of Asp's for Glu's) compared to SP304 (single substitution of Asp^3 for Glu^3). Indeed, biological activity of SP 304 is the best amongst the analogs evaluated.

[2] = target: T1, guanylate cyclase receptor (Homo sapiens, UniProt P25092); assay: T84 cell-based assay for determining the intracellular levels of cGMP; conditions: for ability to enhance intracellular levels of cGMP (ranking in words): T84 cell-based assay, text summary of Table 4; for cGMP Level (intracellular cGMP level observed in T84 cells): 1 micromolar peptide agonist, 30 minutes
T1 construct: host or cells: T84 human colon carcinoma cells
Description: Cell Culture: Human T84 colon carcinoma cells were obtained from the American Type Culture Collection at passage 52. Cells were grown in a 1:1 mixture of Ham's F-12 medium and Dulbecco's modified Eagle's medium (DMEM) supplemented with 10% fetal bovine serum, 100 U penicillin/ml, and 100 μg/ml streptomycin. The cells were fed fresh medium every third day and split at a confluence of approximately 80%.
as §1

[3] = target: T1, guanylate cyclase receptor; assay: as above; conditions: for intracellular production of cGMP at different pH values: pH 5 to 7

T1 sequence (P25092 24-1073): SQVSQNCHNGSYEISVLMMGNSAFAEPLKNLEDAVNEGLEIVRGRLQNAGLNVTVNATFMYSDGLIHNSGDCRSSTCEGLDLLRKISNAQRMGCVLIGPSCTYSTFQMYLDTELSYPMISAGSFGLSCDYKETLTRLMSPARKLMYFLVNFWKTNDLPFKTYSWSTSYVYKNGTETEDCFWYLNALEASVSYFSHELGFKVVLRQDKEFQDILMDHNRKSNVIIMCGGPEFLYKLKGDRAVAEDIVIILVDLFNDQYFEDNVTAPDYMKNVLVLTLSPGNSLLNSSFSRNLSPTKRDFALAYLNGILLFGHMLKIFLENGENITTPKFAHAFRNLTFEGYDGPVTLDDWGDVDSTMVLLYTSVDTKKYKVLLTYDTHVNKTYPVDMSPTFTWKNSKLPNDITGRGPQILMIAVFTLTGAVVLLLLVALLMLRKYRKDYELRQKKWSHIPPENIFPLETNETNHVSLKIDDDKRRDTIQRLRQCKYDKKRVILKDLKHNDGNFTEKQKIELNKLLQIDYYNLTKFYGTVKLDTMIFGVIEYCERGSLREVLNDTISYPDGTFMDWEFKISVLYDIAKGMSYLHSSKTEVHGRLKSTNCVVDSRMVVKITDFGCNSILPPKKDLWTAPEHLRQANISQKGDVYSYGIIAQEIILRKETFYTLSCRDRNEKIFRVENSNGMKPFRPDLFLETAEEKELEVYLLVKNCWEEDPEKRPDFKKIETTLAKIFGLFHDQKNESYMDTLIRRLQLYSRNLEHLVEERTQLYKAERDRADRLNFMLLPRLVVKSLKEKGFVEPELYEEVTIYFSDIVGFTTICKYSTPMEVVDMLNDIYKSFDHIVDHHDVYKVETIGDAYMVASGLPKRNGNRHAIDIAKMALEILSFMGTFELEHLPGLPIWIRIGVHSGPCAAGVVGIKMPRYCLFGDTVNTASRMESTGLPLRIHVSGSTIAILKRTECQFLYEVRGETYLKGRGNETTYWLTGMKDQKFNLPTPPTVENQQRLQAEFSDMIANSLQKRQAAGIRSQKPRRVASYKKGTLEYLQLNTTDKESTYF

| Substance | ability to enhance intracellular levels of cGMP (ranking in words) [2] | cGMP Level (intracellular cGMP level observed in T84 cells) ([2]; T84 cells) | intracellular cGMP level in combination with sulindac sulfone ([2]; T84 cells, combination with cGMP dependent phosphodiesterase inhibitor sulindac sulfone) | intracellular cGMP level in combination with Zaprinast ([2]; T84 cells, combination with cGMP dependent phosphodiesterase inhibitor zaprinast) | enhancement of intracellular cGMP, comparison among peptides ([3]; pH between 6.5 and 7) | biological activity after heating for 60 minutes [1] | biological activity after heating for 90 minutes, relative to original value [1] | intracellular production of cGMP at different pH values [3] |
| --- | --- | --- | --- | --- | --- | --- | --- | --- |
| Asn^1 Asp^2 Glu^3 Cys^4 Glu^5 Leu^6 Cys^7 Val^8 Asn^9 Val^10 Ala^11 Cys^12 Thr^13 Gly^14 Cys^15 Leu^16 (NDECELCVNVACTGCL; disulfide 4-12, 7-15) [SP 304, [Glu^3]-UG, [4,12; 7,15] bicycle with two disulfide linkages] | greatest enhancement of intracellular cGMP | 315 pmol/well | synergistic increases | synergistic increases | greatest enhancement | did not change significantly | remained unaltered | enhanced intracellular production of cGMP |
| SP 316: 14-residue peptide Glu Cys Glu Leu Cys Val Asn Val Ala Cys Thr Gly Cys Leu, positions 3-16, disulfides 4-12 and 7-15 (ECELCVNVACTGCL; disulfide 2-10, 5-13) | second in effectiveness | 275 pmol/well | – | – | – | – | – | – |
| [Glu^2, Glu^3]-UG (NEECELCVNVACTGCL; ends and bridges not checked; cysteine pairing not given here; UniProt Q16661 97-112, looked up, variant D2E D3E) [SP 302, uroguanylin analog, double substitution of Asp's for Glu's] | somewhat weaker | 225 pmol/well | – | – | – | did not change significantly | about 80% | enhanced intracellular production of cGMP |
| [Glu^2]-UG (NEDCELCVNVACTGCL; ends and bridges not checked; cysteine pairing not given here; UniProt Q16661 97-112, looked up, variant D2E) [SP 303, uroguanylin analog with Glu in position 2] | somewhat weaker | 195 pmol/well | – | – | – | did not change significantly | about 80% | enhanced intracellular production of cGMP |
| bicyclo[4,12; 7,15]Asn^1-Asp^2-Asp^3-Cys^4-Glu^5-Leu^6-Cys^7-Val^8-Asn^9-Val^10-Ala^11-Cys^12-Thr^13-Gly^14-Cys^15-Leu^16 (NDDCELCVNVACTGCL; disulfide 4-12, 7-15; listed as Homo sapiens) [SP 301, human uroguanylin, parent compound, reference compound] | somewhat weaker | 205 pmol/well | – | – | – | did not change significantly | about 80% | enhanced intracellular production of cGMP |
